Data reported in patent publication US20200087373A1 (UNIVERSITY OF COPENHAGEN, published 2020).
Ends that are not written are not given here. * marks the point of attachment. C16 diacid = O=C(O)CCCCCCCCCCCCCCC(=O)*

B1: AT175 [hGIP(5-30)NH2[A13K]-C16diacid/13] (peptide)
peptide: TFISDYSIK(C16 diacid)MDKIHQQDFVNWLLAQK-NH2
modifications: N-terminus assumed
SMILES: CC[C@H](C)[C@H](NC(=O)[C@H](CCCCN)NC(=O)[C@H](CC(=O)O)NC(=O)[C@H](CCSC)NC(=O)[C@H](CCCCNC(=O)CCCCCCCCCCCCCCC(=O)O)NC(=O)[C@@H](NC(=O)[C@H](CO)NC(=O)[C@H](Cc1ccc(O)cc1)NC(=O)[C@H](CC(=O)O)NC(=O)[C@H](CO)NC(=O)[C@@H](NC(=O)[C@H](Cc1ccccc1)NC(=O)[C@@H](N)[C@@H](C)O)[C@@H](C)CC)[C@@H](C)CC)C(=O)N[C@@H](Cc1c[nH]cn1)C(=O)N[C@@H](CCC(N)=O)C(=O)N[C@@H](CCC(N)=O)C(=O)N[C@@H](CC(=O)O)C(=O)N[C@@H](Cc1ccccc1)C(=O)N[C@H](C(=O)N[C@@H](CC(N)=O)C(=O)N[C@@H](Cc1c[nH]c2ccccc12)C(=O)N[C@@H](CC(C)C)C(=O)N[C@@H](CC(C)C)C(=O)N[C@@H](C)C(=O)N[C@@H](CCC(N)=O)C(=O)N[C@@H](CCCCN)C(N)=O)C(C)C
B2: AT176 [hGIP(5-30)NH2[M14K]-C16diacid/14] (peptide)
peptide: TFISDYSIAK(C16 diacid)DKIHQQDFVNWLLAQK-NH2
modifications: N-terminus assumed
SMILES: CC[C@H](C)[C@H](NC(=O)[C@H](CO)NC(=O)[C@H](Cc1ccc(O)cc1)NC(=O)[C@H](CC(=O)O)NC(=O)[C@H](CO)NC(=O)[C@@H](NC(=O)[C@H](Cc1ccccc1)NC(=O)[C@@H](N)[C@@H](C)O)[C@@H](C)CC)C(=O)N[C@@H](C)C(=O)N[C@@H](CCCCNC(=O)CCCCCCCCCCCCCCC(=O)O)C(=O)N[C@@H](CC(=O)O)C(=O)N[C@@H](CCCCN)C(=O)N[C@H](C(=O)N[C@@H](Cc1c[nH]cn1)C(=O)N[C@@H](CCC(N)=O)C(=O)N[C@@H](CCC(N)=O)C(=O)N[C@@H](CC(=O)O)C(=O)N[C@@H](Cc1ccccc1)C(=O)N[C@H](C(=O)N[C@@H](CC(N)=O)C(=O)N[C@@H](Cc1c[nH]c2ccccc12)C(=O)N[C@@H](CC(C)C)C(=O)N[C@@H](CC(C)C)C(=O)N[C@@H](C)C(=O)N[C@@H](CCC(N)=O)C(=O)N[C@@H](CCCCN)C(N)=O)C(C)C)[C@@H](C)CC
B3: AT178 [hGIP(5-30)NH2[I17K]-C16diacid/17] (peptide)
peptide: TFISDYSIAMDKK(C16 diacid)HQQDFVNWLLAQK-NH2
modifications: N-terminus assumed
SMILES: CC[C@H](C)[C@H](NC(=O)[C@H](CO)NC(=O)[C@H](Cc1ccc(O)cc1)NC(=O)[C@H](CC(=O)O)NC(=O)[C@H](CO)NC(=O)[C@@H](NC(=O)[C@H](Cc1ccccc1)NC(=O)[C@@H](N)[C@@H](C)O)[C@@H](C)CC)C(=O)N[C@@H](C)C(=O)N[C@@H](CCSC)C(=O)N[C@@H](CC(=O)O)C(=O)N[C@@H](CCCCN)C(=O)N[C@@H](CCCCNC(=O)CCCCCCCCCCCCCCC(=O)O)C(=O)N[C@@H](Cc1c[nH]cn1)C(=O)N[C@@H](CCC(N)=O)C(=O)N[C@@H](CCC(N)=O)C(=O)N[C@@H](CC(=O)O)C(=O)N[C@@H](Cc1ccccc1)C(=O)N[C@H](C(=O)N[C@@H](CC(N)=O)C(=O)N[C@@H](Cc1c[nH]c2ccccc12)C(=O)N[C@@H](CC(C)C)C(=O)N[C@@H](CC(C)C)C(=O)N[C@@H](C)C(=O)N[C@@H](CCC(N)=O)C(=O)N[C@@H](CCCCN)C(N)=O)C(C)C
B4: AT177 [hGIP(5-30)NH2[D15K]-C16diacid/15] (peptide)
peptide: TFISDYSIAMK(C16 diacid)KIHQQDFVNWLLAQK-NH2
modifications: N-terminus assumed
SMILES: CC[C@H](C)[C@H](NC(=O)[C@H](CO)NC(=O)[C@H](Cc1ccc(O)cc1)NC(=O)[C@H](CC(=O)O)NC(=O)[C@H](CO)NC(=O)[C@@H](NC(=O)[C@H](Cc1ccccc1)NC(=O)[C@@H](N)[C@@H](C)O)[C@@H](C)CC)C(=O)N[C@@H](C)C(=O)N[C@@H](CCSC)C(=O)N[C@@H](CCCCNC(=O)CCCCCCCCCCCCCCC(=O)O)C(=O)N[C@@H](CCCCN)C(=O)N[C@H](C(=O)N[C@@H](Cc1c[nH]cn1)C(=O)N[C@@H](CCC(N)=O)C(=O)N[C@@H](CCC(N)=O)C(=O)N[C@@H](CC(=O)O)C(=O)N[C@@H](Cc1ccccc1)C(=O)N[C@H](C(=O)N[C@@H](CC(N)=O)C(=O)N[C@@H](Cc1c[nH]c2ccccc12)C(=O)N[C@@H](CC(C)C)C(=O)N[C@@H](CC(C)C)C(=O)N[C@@H](C)C(=O)N[C@@H](CCC(N)=O)C(=O)N[C@@H](CCCCN)C(N)=O)C(C)C)[C@@H](C)CC
B5: AT179 [hGIP(5-30)NH2[Q19K]-C16diacid/19] (peptide)
peptide: TFISDYSIAMDKIHK(C16 diacid)QDFVNWLLAQK-NH2
modifications: N-terminus assumed
SMILES: CC[C@H](C)[C@H](NC(=O)[C@H](CO)NC(=O)[C@H](Cc1ccc(O)cc1)NC(=O)[C@H](CC(=O)O)NC(=O)[C@H](CO)NC(=O)[C@@H](NC(=O)[C@H](Cc1ccccc1)NC(=O)[C@@H](N)[C@@H](C)O)[C@@H](C)CC)C(=O)N[C@@H](C)C(=O)N[C@@H](CCSC)C(=O)N[C@@H](CC(=O)O)C(=O)N[C@@H](CCCCN)C(=O)N[C@H](C(=O)N[C@@H](Cc1c[nH]cn1)C(=O)N[C@@H](CCCCNC(=O)CCCCCCCCCCCCCCC(=O)O)C(=O)N[C@@H](CCC(N)=O)C(=O)N[C@@H](CC(=O)O)C(=O)N[C@@H](Cc1ccccc1)C(=O)N[C@H](C(=O)N[C@@H](CC(N)=O)C(=O)N[C@@H](Cc1c[nH]c2ccccc12)C(=O)N[C@@H](CC(C)C)C(=O)N[C@@H](CC(C)C)C(=O)N[C@@H](C)C(=O)N[C@@H](CCC(N)=O)C(=O)N[C@@H](CCCCN)C(N)=O)C(C)C)[C@@H](C)CC

Key:
[1] = molecular target: T1, human GIP receptor (human, UniProt P48546 22-466); assay: IC50 with 2% HSA over IC50 with 0.1% casein, 125I-hGIP competition, COS-7/hGIPR
T1 construct: whole, on cells; also called hGIPR
T1 sequence (looked up): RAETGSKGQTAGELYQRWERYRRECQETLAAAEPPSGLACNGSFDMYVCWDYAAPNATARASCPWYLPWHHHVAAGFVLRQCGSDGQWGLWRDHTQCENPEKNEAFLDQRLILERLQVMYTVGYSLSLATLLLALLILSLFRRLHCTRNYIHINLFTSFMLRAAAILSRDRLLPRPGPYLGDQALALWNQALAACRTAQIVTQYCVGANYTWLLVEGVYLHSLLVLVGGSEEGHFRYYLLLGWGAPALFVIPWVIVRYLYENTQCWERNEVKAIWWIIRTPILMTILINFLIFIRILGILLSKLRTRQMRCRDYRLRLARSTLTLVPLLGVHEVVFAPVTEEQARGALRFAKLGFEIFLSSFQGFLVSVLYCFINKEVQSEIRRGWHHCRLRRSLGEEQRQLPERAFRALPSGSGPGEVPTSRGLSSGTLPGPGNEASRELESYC
Method: (§1) After incubation, the cells were washed twice in ice-cold binding buffer (+/−2% HSA) and lysed using 200 mM NaOH with 1% SDS for 30 min. Nonspecific binding was determined as the binding of radioactive ligand to untransfected cells.

[2] = molecular target: T1, human GIP receptor; assay: cell-based or functional assay
[3] = molecular target: T1, human GIP receptor; assay: 125I-hGIP competition binding, COS-7 cells expressing hGIPR;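 note: nonspecific binding taken as radioligand bound by untransfected cells, binding buffer with or without 2% HSA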
Method: as §1

[4] = molecular target: T1, human GIP receptor; assay: 125I-hGIP competition binding, COS-7/hGIPR, 0.1% casein;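 note: nonspecific binding defined as radioligand binding measured on untransfected cells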
Method: as §1

[5] = molecular target: T1, human GIP receptor; assay: 125I-hGIP competition binding, COS-7/hGIPR, 2% HSA;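 note: nonspecific binding defined as radioligand binding to untransfected cells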
Method: as §1

Binder	Fold change HSA (2%)/Casein (0.1%) [1] [fold]	cAMP agonism, Emax [2]	cAMP antagonism [2] [nM]	cAMP antagonism, log [2] [log M]	IC50 [3] [nM]	log IC50 [3] [log M]	IC50 [4] [nM]	logIC50 [4] [log M]	IC50 [5] [nM]	logIC50 [5] [log M]	cAMP agonism [2] [nM]	cAMP agonism, EC50 (log) [2] [log M]
B1	7.8	0	17	-7.8	73	-7.1	72.4	-7.1	562	-6.3		
B2	4.9	12	121	-6.9	114	-6.9	115	-6.9	562	-6.3	121	-7
B3	3	0	33	-7.5	66	-7.2	66.1	-7.2	195	-6.7		
B4	3.8	30	59	-7.2	134	-6.9	135	-6.87	513	-6.29	59	-7
B5	3.6	32	89	-7.1	453	-6.3	10.5	-7.98	38	-7.42	89	-7
